The series deals with the molecule itself. The experiment in a line: X-ray crystallography, crystallographic symmetry applied (self-association, homotrimer).

B1: NAGLU-kif (recombinant human alpha-N-acetylglucosaminidase expressed in HT1080 cells treated with kifunensine) (enzyme)
chain: DEAREAAAVRALVARLLGPGPAADFSVSVERALAAKPGLDTYSLGGGGAARVRVRGSTGVAAAAGLHRYLRDFCGCHVAWSGSQLRLPRPLPAVPGELTEATPNRYRYYQNVCTQSYSFVWWDWARWEREIDWMALNGINLALAWSGQEAIWQRVYLALGLTQAEINEFFTGPAFLAWGRMGNLHTWDGPLPPSWHIKQLYLQHRVLDQMRSFGMTPVLPAFAGHVPEAVTRVFPQVNVTKMGSWGHFNCSYSCSFLLAPEDPIFPIIGSLFLRELIKEFGTDHIYGADTFNEMQPPSSEPSYLAAATTAVYEAMTAVDTEAVWLLQGWLFQHQPQFWGPAQIRAVLGAVPRGRLLVLDLFAESQPVYTRTASFQGQPFIWCMLHNFGGNHGLFGALEAVNGGPEAARLFPNSTMVGTGMAPEGISQNEVVYSLMAELGWRKDPVPDLAAWVTSFAARRYGVSHPDAGAAWRLLLRSVYNCSGEACRGHNRSPLVRRPSLQMNTSIWYNRSDVFEAWRLLLTSAPSLATSPAFRYDLLDLTRQAVQELVSLYYEEARSAYLSKELASLLRAGGVLAYELLPALDEVLASDSRFLLGSWLEQARAAAVSEAEADFYEQNSRYQLTLWGPEGNILDYANKQLAGLVANYYTPRWRLFLEALVDSVAQGIPFQQHQFDKNVFQLEQAFVLSKQRYPSQPRGDTVDLAKKIFLKYYPRWVAGSW
modifications: N-linked high mannose glycans at N261, N272, N435, N503, N526 and N532 (numbered as amino acids 24-743)
notes: There is one molecule in the asymmetric unit, and the trimer is generated by crystallographic symmetry; also called NAGLU24-743; Naglu-kif R3
B1: the binding result is on record as “binds”.

(Values after patent US20150031112A1 (SHIRE HUMAN GENETIC THERAPIES, published 2015).)
